{
  "source": "paper doi:10.1101/2023.06.17.545066",
  "about": "(bioRxiv, 2023)",
  "proteins": {"B1": {"name": "EcL-TTD αβ heterodimer (complex)", "chain 1": "MMSESNKQQAVNKLTEIVANFTAMISTRMPDDVVDKLKQLKDAETSSMGKIIYHTMFDNMQKAIDLNRPACQDTGEIMFFVKVGSRFPLLGELQSILKQAVEEATVKAPLRHNAVEIFDEVNTGKNTGSGVPWVTWDIIPDNDDAEIEVYMAGGGCTLPGRSKVLMPSEGYEGVVKFVFENISTLAVNACPPVLVGVGIATSVETAAVLSRKAILRPIGSRHPNPKAAELELRLEEGLNRLGIGPQGLTGNSSVMGVHIESAARHPSTIGVAVSTGCWAHRRGTLLVHADLTFENLSHTRSAL", "chain 2": "MKKILTTPIKAEDLQDIRVGDVIYLTGTLVTCRDVCHRRLIELKRPIPYDLNGKAIFHAGPIVRKNGDKWEMVSVGPTTSMRMESFEREFIEQTGVKLVVGKGGMGPLTEEGCQKFKALHVIFPAGCAVLAATQVEEIEEVHWTELGMPESLWVCRVKEFGPLIVSIDTHGNNLIAENKKLFAERRDPIVEEICEHVHYIK"}},
  "biological_target": "the molecule itself",
  "assay": "SEC",
  "data": [
    {"protein": "B1", "values": [
      {"measurement": "stoichiometry N", "result": 2}
    ]}
  ]
}
